Laboratory results reported in article PMC6495647, “Purification and interactions of the MucA’ and MucB proteins constituting the DNA polymerase RI”.

Key:
MucA' = biological target: T1, MucA' (plasmid pKM101 (expressed in E. coli …, UniProt Q79BK8 26-146)); experiment: SPR; MucA' alone; SPR (BIAcore 2000, SA chip): 20 mM HEPES pH 8.0, 50 mM K-glutamate, 10 mM Mg acetate, 5% glycerol, 0.1 mM EDTA, 2 mM DTT, 0.05% Surfactant P20 (1% P20 in MucB sample); temperature not stated; conditions: protein: recombinant; tags: none stated (pYG8506, pET-16b based); chain copies: 2; label: 5'-biotin; single strand
T1 sequence: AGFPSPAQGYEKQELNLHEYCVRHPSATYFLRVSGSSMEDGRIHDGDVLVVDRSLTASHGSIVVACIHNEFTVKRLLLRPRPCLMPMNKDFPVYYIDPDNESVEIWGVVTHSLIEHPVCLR

MucB = biological target: T2, MucB (plasmid pKM101 (expressed in E. coli …, UniProt Q79BK7 1-421)); experiment: SPR; MucB 0.26 uM alone; 10 mM Mg acetate; SPR (BIAcore 2000, SA chip): 20 mM HEPES pH 8.0, 50 mM K-glutamate, 10 mM Mg acetate, 5% glycerol, 0.1 mM EDTA, 2 mM DTT, 0.05% Surfactant P20 (1% P20 in MucB sample); temperature not stated; conditions: protein: recombinant; tags: none stated (untagged construct pYG8512); label: 5'-biotin; single strand
T2 sequence: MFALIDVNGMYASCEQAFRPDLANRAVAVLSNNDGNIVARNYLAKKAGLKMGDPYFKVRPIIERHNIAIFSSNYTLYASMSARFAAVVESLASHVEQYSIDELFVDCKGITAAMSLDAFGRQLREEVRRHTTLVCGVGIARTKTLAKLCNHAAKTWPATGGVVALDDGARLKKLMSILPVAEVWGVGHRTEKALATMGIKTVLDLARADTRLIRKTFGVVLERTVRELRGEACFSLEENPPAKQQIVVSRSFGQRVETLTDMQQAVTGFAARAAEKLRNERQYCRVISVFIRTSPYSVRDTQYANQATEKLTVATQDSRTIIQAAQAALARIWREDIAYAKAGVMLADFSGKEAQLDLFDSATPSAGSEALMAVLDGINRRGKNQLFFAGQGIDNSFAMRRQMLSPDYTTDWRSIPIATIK

B1: 73-mer ssDNA oligonucleotide (ssDNA)
DNA: GCGGCGGTTGAGTAGCTCTTCTTCCAGCACGTTTTCGCCGATAATACCGGGATCGACCACGCCATCCATTACC
binding result (MucA'): no binding | binding result (MucB): binds
